From paper PMC10713658

Molecular target: ABI2 (UniProt Q9NYB9)
Experiment: Flag co-IP, ABI2 Western blot
Details: reference: wild type, OA-treated; sites S668,T670,S671

Q: With “GRAF1 (from UniProt Q9UNA1) AAA (S668A/T670A/S671A), OA-treated” as the substance, how does the “binding against the reference” value read?
A: The value was “weaker”.
